Legend:
[1] = substrate: OC[C@H]1O[C@@H](O[C@H]2[C@H](O)[C@@H](O)C(O)O[C@@H]2CO)[C@H](O)[C@@H](O)[C@@H]1O; assay: purified protein, by the assay type; conditions: other: cellobiose as substrate, 50° C., pH 4.8, Hanes plot
[2] = Thermostability: remaining beta-glucosidase activity after incubation at different temperatures; format: physicochemical
Protocol: For testing the thermostability of the enzyme extract, aliquots of the extracts were incubated in PCR tubes in a thermocycler with temperature gradient option at 12 different temperatures from 48.5 to 67.0° C. for different time periods (0-4 hours) followed by assaying the activity at 50° C. with 5 mM pNPG in NaCltrate buffer pH 4.8 as substrate. The rate of denaturation, kD, was calculated as the slope of a semi-logaritmic plot of remaining activity vs incubation time. The half life was calculated as: T1/2=ln(2)/kD.
(§1) Michaelis Menten kinetics, glucose tolerance, termostability, pH optimum, and cellodextrin hydrolysis were carried out as described in EXAMPLE 1.

[3] = pH profile of beta-glucosidase activity on pNPG; format: biochemical; conditions: 50 C
Protocol: For testing the pH optimum of the enzyme extracts, they were assayed at 50° C. with 5 mM pNPG in Citrate Phosphate buffer at different pH ranging from 2.65 to 7.25. Endoglucanase activity of Celluclast 1.5 L was assayed with AZO-CMC as described by the manufacturer (Megazyme), but testing the same pH range 2.65-7.25 as for the pNPG assay.
as §1

[4] = Hydrolysis of cellodextrins (cellohexaose); format: biochemical; conditions: 50 C, pH 4.8, 30 min time course
Protocol: Hydrolysis of cellohexaose was carried out by mixing, in the ratio 1:1, 0.2 mM cellohexaose in 50 mM NaCltrate buffer pH 4.8 and enzyme diluted in 50 mM NaCltrate buffer pH 4.8 to a concentration of 3.7 μg/ml. The reaction was incubated at 50° C. and for a period of 30 min, 100 μl sample was placed on ice every 5 min. 100 μl 200 mM NaOH was added to terminate the reaction, and after another 1 fold dilution with 100 mM NaOH, the samples were analyzed at Dionex ICS3000 using gradient elution: 0-30% eluent B in 26 min followed by 2 min washing with 50% eluent B (0.5 M NaAcetate in 100 mM NaOH) and 5 min re-equilibrating with 100% eluent A (100 mM NaOH).
as §1

Molecule | Km [1] [µM] | activity retained after 2 hours of incubation ([2]; 60 C) | activity retained after 4 hours of incubation ([2]; 60 C) | activity retained after 2 hours of incubation ([2]; 67 C) | stability at 50 C ([2]; purified BGL1) | half-life ([2]; purified BGL1, from 62 C up to 65 C) | calculated half-life ([2]; purified BGL1, temperatures above 60 C) | stability at temperatures up to 58 C ([2]; up to four hours of incubation) | activity at basic conditions [3] | activity within pH range 3.8-4.8 [3] | pH optimum [3] [pH] | mode of action in hydrolysis of cellohexaose [4]
Aspergillus saccharolyticus CBS 127449 beta-glucosidase BGL1, his-tagged, expressed in T. reesei, SEQ ID NO: 3 (without signal peptide SEQ ID NO: 4) … (protein) DELAFASPFYPSPWANGQGEWADAYKRAVDIVSQMTLDEKVNLTTGTGWELEKCVGQTGGVPRLDIGGMCLQDSPLGVRDSDYNSGFPAGVNVAATWDRKLAYLRGQAMGQEFSDKGVDVQLGPAAGPLGRSPDGGRNWEGFSPDPALTGVLFAETIKGIQDAGVIATAKHYILNEQEHFRQVSEAAGYGFNISDTISSNIDDKTIHEMYLWPFADAVRAGVGAVMCSYNQINNSYACQNSYTLNKLLKSELGFQGFVMSDWGAHHSGVGSALAGLDMSMPGDVSFDSATSFWGTNLTVAVLNGTVPQWRVDDMAVRIMAAYYKVGRDRLYQPPNFSSWTRDEYGFKYYYSQEGPYEKVNQYVNVQRNHSEVIRKVGADSTVLLKNNNALPLTGKERKVALIGEDAGSNAYGANGCSDRGCDNGTLAMAWGSGTAEFPYLVTPEQAIQAEVLKNKGSTYTITDNWALSQVEALAKTASVSLVFVNADSGEGYISVDGNEGDRNNLTLWKNGDNLIKATASNCNNTIVVIHSVGAVLVDEWYDHPNVTAILWAGLPGQESGNSLADVLYGRVNPGGKTPFTWGKTRASYGDYLVREPNNGHGAPQDNFSEGVFIDYRGFDKRNETPIYEFGHGLSYTTFNYSGLQVEVLNTSSSTPVATQTKPAPTFGEIGNASDYLYPEGLDRITAFIYPWLNSTDLKESSGDPDYGVDTAKYIPAGATNSSAQPVLPAGGGFGGNPRLYDELIRVSVTVKNTGRVTGDAVPQLYVSLGGPNEPKVVLRQFDRITLRPSEETVWTTTLTRRDLSNWDVAAQDWVITSYPKKVHVGSSSRQLPLHAALPKVQ | 1900 |  |  |  |  |  |  |  |  |  |  | 
BGL1: GH family 3 beta-glucosidase of Aspergillus saccharolyticus; his-tagged, expressed in T. reesei and purified for characterisation (protein, listed as Aspergillus saccharolyticus, His tag, GH family 3 beta-glucosidase of Aspergillus saccharolyticus; his-tagged, expressed in T. reesei and purified for characterisation) DELAFASPFYPSPWANGQGEWADAYKRAVDIVSQMTLDEKVNLTTGTGWELEKCVGQTGGVPRLDIGGMCLQDSPLGVRDSDYNSGFPAGVNVAATWDRKLAYLRGQAMGQEFSDKGVDVQLGPAAGPLGRSPDGGRNWEGFSPDPALTGVLFAETIKGIQDAGVIATAKHYILNEQEHFRQVSEAAGYGFNISDTISSNIDDKTIHEMYLWPFADAVRAGVGAVMCSYNQINNSYACQNSYTLNKLLKSELGFQGFVMSDWGAHHSGVGSALAGLDMSMPGDVSFDSATSFWGTNLTVAVLNGTVPQWRVDDMAVRIMAAYYKVGRDRLYQPPNFSSWTRDEYGFKYYYSQEGPYEKVNQYVNVQRNHSEVIRKVGADSTVLLKNNNALPLTGKERKVALIGEDAGSNAYGANGCSDRGCDNGTLAMAWGSGTAEFPYLVTPEQAIQAEVLKNKGSTYTITDNWALSQVEALAKTASVSLVFVNADSGEGYISVDGNEGDRNNLTLWKNGDNLIKATASNCNNTIVVIHSVGAVLVDEWYDHPNVTAILWAGLPGQESGNSLADVLYGRVNPGGKTPFTWGKTRASYGDYLVREPNNGHGAPQDNFSEGVFIDYRGFDKRNETPIYEFGHGLSYTTFNYSGLQVEVLNTSSSTPVATQTKPAPTFGEIGNASDYLYPEGLDRITAFIYPWLNSTDLKESSGDPDYGVDTAKYIPAGATNSSAQPVLPAGGGFGGNPRLYDELIRVSVTVKNTGRVTGDAVPQLYVSLGGPNEPKVVLRQFDRITLRPSEETVWTTTLTRRDLSNWDVAAQDWVITSYPKKVHVGSSSRQLPLHAALPKVQ |  | more than 90% | more than 70% | approx. 10% | stable throughout the incubation period | less than 2.5 hours | approximately 6 hours | fairly stable | below 10% | above 90 % of maximum | ~4.2 | hydrolyzes the different cellodextrins through exohydrolase action

Reference: patent US8865448B2, “Aspergillus containing beta-glucosidase, beta-glucosidases and nucleic acids encoding the same” (Cleanvantage LLC, priority 2010, dated 2014)
